# Source: patent publication US20110124564A1, “NUCLEOLIN-BINDING PEPTIDES, NUCLEOLIN- BINDING LYTIC PEPTIDES, FUSION CONSTRUCTS AND METHODS OF MAKING AND USING SAME” (ESPERANCE PHARMACEUTICALS, INC., published 2011)
# Where two headings read alike, the source gives them in different places. Residues, ends and D or L forms follow the SMILES beside them.
# Tests used:
# [1] = tested on: MDA-MB-435S breast cancer cells; type: cell-based, human; settings: 24 h
# Method: EP-301 and EP-302 were analyzed for anti-cancer activity in vitro in a time course experiment against MDA-MB-435S breast cancer cells. EP-301 and EP-302 were freshly dissolved in saline and added into cancer cell seeded multi-well plates at increasing concentrations of 0, 0.001, 0.01, 0.1, 1, 2, 5, 10 and 100 μM. Incubations were conducted for 0.25, 0.5, 1, 2, 4, 6 h or 24 h at 37° C. Cell viability was determined using formazan conversion assays (MTT assays). Controls were treated with USP saline or 0.1% TritonX-100™ as reference for 0 and 100% cell death, respectively. Cytotoxicity was evaluated as an IC50 value derived for EP-301 and EP-302 at each time point.
# [2] = tested on: MDA-MB-435S breast cancer cells; type: cell-based, human; settings: 4 h
# Method: Twelve different fusion constructs were analyzed for anti-cancer activity in vitro against MDA-MB-435S breast cancer cells and for hemolytic activity in vitro to human red blood cells. Fusion constructs of the following sequence were tested:
# The peptide conjugates were freshly dissolved in saline and added into cancer cell seeded multi-well plates at increasing concentrations of 0, 0.001, 0.01, 0.1, 1, 2, 5, 10 and 100 μM. Incubations were conducted for 4 h at 37° C. Cell viability was determined using formazan conversion assays (MTT assays). Controls were treated with USP saline or 0.1% TritonX-100™ as reference for 0 and 100% cell death, respectively. Cytotoxicity was evaluated as an IC50 value.
# human red blood cells = experiment: Hemolytic activity; type: cell-based
# Method: Hemolytic activity was studied by incubating the fusion constructs with human red blood cells at concentrations of 0.01, 0.1, 1, 10 and 50 μM for 2 hours. Saline and 0.1% Triton served as controls.
# Hemolytic activity of the compounds was studied by incubating EP-301 and EP-302 with human red blood cells at concentrations of 0.01, 0.1, 1, 10 and 50 μM for 2 hours.
# [3] = molecular target: T1, nucleolin expressed on the surface of human cancer cell lines (human, UniProt P19338); experiment: cell-based or functional assay
# [4] = molecular target: nucleolin on CHO (Hamster Ovary) cells (hamster)
# [5] = molecular target: T1, nucleolin expressed on the surface of …; experiment: cell-based or functional assay; remark: listed apart in the source
# [6] = molecular target: T1, nucleolin expressed on the surface of …; experiment: cell-based or functional assay; remark: listed apart in the source
# [7] = molecular target: T1, nucleolin expressed on the surface of …; experiment: cell-based or functional assay; remark: listed apart in the source
molecule,measurement,setting,value
CC(C)C[C@H](NC(=O)[C@H](CCCNC(=N)N)NC(=O)[C@H](C)NC(=O)[C@H](CO)NC(=O)[C@H](CCCNC(=N)N)NC(=O)[C@H](CCCNC(=N)N)NC(=O)[C@H](CCC(N)=O)NC(=O)[C@@H]1CCCN1C(=O)[C@H](CCC(=O)O)NC(=O)[C@H](CC(=O)O)NC(=O)[C@H](CCCCN)NC(=O)[C@H](CCCCN)NC(=O)[C@H](C)NC(=O)[C@H](Cc1ccccc1)NC(=O)[C@H](CCCCN)NC(=O)[C@H](CCCCN)NC(=O)[C@H](C)NC(=O)[C@H](Cc1ccccc1)NC(=O)[C@H](CCCCN)NC(=O)[C@H](C)NC(=O)[C@H](Cc1ccccc1)NC(=O)[C@H](CCCCN)NC(=O)[C@H](CCCCN)NC(=O)[C@H](C)NC(=O)[C@H](Cc1ccccc1)NC(=O)[C@H](CCCCN)NC(=O)[C@H](C)NC(=O)[C@H](Cc1ccccc1)NC(=O)[C@@H](N)CCCCN)C(=O)N[C@@H](CO)C(=O)N[C@@H](C)C(=O)N[C@@H](CCCCN)C(=O)O [EP-301] (H-KFAKFAKKFAKFAKKFAKKDEPQRRSARLSAK-OH),IC50,[1],12 µM
same,IC50,[2],64.8 µM
same,HA50,human red blood cells,Not hemolytic
CC(C)C[C@H](NC(=O)[C@H](CCCNC(=N)N)NC(=O)[C@H](C)NC(=O)[C@H](CCCNC(=N)N)NC(=O)[C@H](CCCCN)NC(=O)[C@H](C)NC(=O)[C@H](Cc1ccccc1)NC(=O)[C@H](CCCCN)NC(=O)[C@H](CCCCN)NC(=O)[C@H](C)NC(=O)[C@H](Cc1ccccc1)NC(=O)[C@H](CCCCN)NC(=O)[C@H](C)NC(=O)[C@H](Cc1ccccc1)NC(=O)[C@H](CCCCN)NC(=O)[C@H](CCCCN)NC(=O)[C@H](C)NC(=O)[C@H](Cc1ccccc1)NC(=O)[C@H](CCCCN)NC(=O)[C@H](C)NC(=O)[C@H](Cc1ccccc1)NC(=O)[C@@H](N)CCCCN)C(=O)N[C@@H](CCC(N)=O)C(=O)N[C@@H](CCCNC(=N)N)C(=O)N[C@@H](CCCNC(=N)N)C(=O)N[C@@H](Cc1ccccc1)C(=O)O (H-KFAKFAKKFAKFAKKFAKRARLQRRF-OH),IC50,[2],0.87 ± 0.003 µM
same,HA50,human red blood cells,Not hemolytic
CC(C)C[C@H](NC(=O)[C@H](CCCNC(=N)N)NC(=O)[C@H](C)NC(=O)[C@H](CCCNC(=N)N)NC(=O)[C@H](CCCCN)NC(=O)[C@H](C)NC(=O)[C@H](Cc1ccccc1)NC(=O)[C@H](CCCCN)NC(=O)[C@H](CCCCN)NC(=O)[C@H](C)NC(=O)[C@H](Cc1ccccc1)NC(=O)[C@H](CCCCN)NC(=O)[C@H](C)NC(=O)[C@H](Cc1ccccc1)NC(=O)[C@H](CCCCN)NC(=O)[C@H](CCCCN)NC(=O)[C@H](C)NC(=O)[C@H](Cc1ccccc1)NC(=O)[C@H](CCCCN)NC(=O)[C@H](C)NC(=O)[C@H](Cc1ccccc1)NC(=O)[C@@H](N)CCCCN)C(=O)N[C@@H](CCC(N)=O)C(=O)N[C@@H](CCCNC(=N)N)C(=O)N[C@@H](CCCNC(=N)N)C(=O)O (H-KFAKFAKKFAKFAKKFAKRARLQRR-OH),IC50,[2],1.6 ± 0.05 µM
same,HA50,human red blood cells,Not hemolytic
RARLQRRSARLSAK,"IC50 of cytotoxicity (MTT), MDA-MB-435S breast cancer cells, 120 h",[3],2.4 µM
KFAKFAKKFAKFAKKFAKRARLQRRSARLSAK [EP-302],"IC50 of cytotoxicity (MTT), CHO (Hamster Ovary) cells, 6 h",[4],3.1 µM
same,"IC50 of cytotoxicity (MTT), CHO (Hamster Ovary) cells, 24 h",[4],3.7 µM
same,"IC50 of cytotoxicity (MTT), MDA-MB-435S breast cancer cells, time course, 30 minutes",[5],2.3 µM
same,"IC50 of cytotoxicity (MTT), MDA-MB-435S breast cancer cells, 4 h",[6],0.9 µM
same,"IC50 of cytotoxicity (MTT), A549 (Lung) cells, 6 h",[7],4.3 µM
same,"IC50 of cytotoxicity (MTT), A549 (Lung) cells, 24 h",[7],2.4 µM
same,"IC50 of cytotoxicity (MTT), DU145 (Prostate) cells, 6 h",[7],3.1 µM
same,"IC50 of cytotoxicity (MTT), DU145 (Prostate) cells, 24 h",[7],5.1 µM
same,"IC50 of cytotoxicity (MTT), Daudi (NHL) cells, 6 h",[7],3.2 µM
same,"IC50 of cytotoxicity (MTT), Daudi (NHL) cells, 24 h",[7],2.5 µM
same,"IC50 of cytotoxicity (MTT), HL60 (Acute Myeloid Leukemia) cells, 24 h",[7],0.5 µM
same,"IC50 of cytotoxicity (MTT), HT 29 (Colon) cells, 6 h",[7],45.8 µM
same,"IC50 of cytotoxicity (MTT), HT 29 (Colon) cells, 24 h",[7],26.2 µM
same,"IC50 of cytotoxicity (MTT), HT 116(Colon) cells, 6 h",[7],6.7 µM
same,"IC50 of cytotoxicity (MTT), HT 116(Colon) cells, 24 h",[7],4.8 µM
same,"IC50 of cytotoxicity (MTT), K562 (Chronic Myeloid Leukemia) cells, 24 h",[7],2.8 µM
same,"IC50 of cytotoxicity (MTT), LoVo (Colon) cells, 6 h",[7],14.1 µM
same,"IC50 of cytotoxicity (MTT), LoVo (Colon) cells, 24 h",[7],12.5 µM
same,"IC50 of cytotoxicity (MTT), MCF-7 (Breast) cells, 6 h",[7],5.5 µM
same,"IC50 of cytotoxicity (MTT), MCF-7 (Breast) cells, 24 h",[7],6.4 µM
same,"IC50 of cytotoxicity (MTT), MDA-MB-231 (Breast) cells, 6 h",[7],4.6 µM
same,"IC50 of cytotoxicity (MTT), MDA-MB-231 (Breast) cells, 24 h",[7],3.6 µM
same,"IC50 of cytotoxicity (MTT), MDA-MB-435S (Breast) cells, 6 h",[7],1.4 µM
same,"IC50 of cytotoxicity (MTT), MDA-MB-435S (Breast) cells, 24 h",[7],1.7 µM
same,"IC50 of cytotoxicity (MTT), MV4-11(Acute Myeloid Leukemia) cells, 24 h",[7],0.5 µM
same,"IC50 of cytotoxicity (MTT), MiaPaCa (Pancreas) cells, 6 h",[7],2.1 µM
same,"IC50 of cytotoxicity (MTT), MiaPaCa (Pancreas) cells, 24 h",[7],1.9 µM
same,"IC50 of cytotoxicity (MTT), OVCAR-3 (Ovary) cells, 6 h",[7],5.2 µM
same,"IC50 of cytotoxicity (MTT), PC-3 (Prostate) cells, 6 h",[7],3.3 µM
same,"IC50 of cytotoxicity (MTT), PC-3 (Prostate) cells, 24 h",[7],3.2 µM
same,"IC50 of cytotoxicity (MTT), SKOV-3 (Ovary) cells, 6 h",[7],5.1 µM
same,"IC50 of cytotoxicity (MTT), SKOV-3 (Ovary) cells, 24 h",[7],5.2 µM
KFAKFAKKFAKFAKKFAKKDEPQRRSARLSAK [EP-301],"IC50 of cytotoxicity (MTT), MDA-MB-435S breast cancer cells, time course, 30 minutes",[5],48 µM
same,"IC50 of cytotoxicity (MTT), MDA-MB-435S breast cancer cells, time course, 6 h",[5],> 40 µM
same,"IC50 of cytotoxicity (MTT), MDA-MB-435S breast cancer cells, time course, 24 h",[5],12 µM
same,"IC50 of cytotoxicity (MTT), MDA-MB-435S breast cancer cells, 4 h",[6],64.8 µM
HARLQRRSARLSAK [H1ARLQRRSARLSAK14],"IC50 of cytotoxicity (MTT), MDA-MB-435S breast cancer cells, 120 h",[3],3.2 µM
KDEPQRRSARLSAK [F3-14 mer fragment],"IC50 of cytotoxicity (MTT), MDA-MB-435S breast cancer cells, 120 h",[3],11.1 µM
RARLQRRSARL [R1ARLQRRSARL11],"IC50 of cytotoxicity (MTT), MDA-MB-435S breast cancer cells, 120 h",[3],5.4 µM
HAHLQRRSARLSAK [H1AHLQRRSARLSAK14],"IC50 of cytotoxicity (MTT), MDA-MB-435S breast cancer cells, 120 h",[3],4.7 µM
RARLQRRSARLS [R1ARLQRRSARLS12],"IC50 of cytotoxicity (MTT), MDA-MB-435S breast cancer cells, 120 h",[3],6.5 µM
RVRLQRRSARLSAK [R1VRLQRRSARLSAK14],"IC50 of cytotoxicity (MTT), MDA-MB-435S breast cancer cells, 120 h",[3],1.9 µM
